Reference: patent publication US20240398896A1, “INFLAMMASOME INHIBITION” (National University of Singapore, priority 2021, published 2024)

Experiments:
bat ASC = test: Co-immunoprecipitation of ASC2-His with bat ASC-Flag from HEK293T cells; format: binding; settings: 0.25 μg bat or hupa4 ASC2 vs 3 μg human ASC2 transfected, FIG. 26B
Description: (§1) Co-immunoprecipitation. HEK293T cells were transfected in 6-well plate with plasmids encoding His-tagged empty vector (His alone), bat ASC2, human ASC2, and Hupa4 ASC2 along with Flag-tagged human or bat ASC. 3 μg human ASC2, in contrast to 0.25 μg control, bat or hupa4 ASC2, were transfected to normalize the expression. At 48 h post-transfection, cells were lysed in IP lysis buffer (Pierce) according to manufacturer's protocol and centrifuged at 500 g for 10 minutes at 4° C. The supernatants were subjected to immunoprecipitation by incubation for 16 hours at 4° C. with anti-Flag (Sigma) incubated magnetic beads, followed by washing three times with TBS containing 0.05% Tween 20 and once with purified water. Bound proteins were separated by 15% SDS-PAGE, followed by immunoblotting analysis with the indicated antibodies.

NLRP3 inflammasome [1] = biological target: T1, NLRP3 inflammasome (Mus musculus, UniProt Q9EPB4); test: Inflammasome activation in LPS-primed BMDMs of bat ASC2/rtTA mice stimulated with MSU crystals; format: cell-based; parameters: endogenous in cells; host or cells: BMDMs of C57BL/6 wild-type and bat ASC2/rtTA mice; settings: Dox, LPS 3 h, MSU 16 h, FIG. 6D, 6E
T1 sequence (Q9EPB4 1-193): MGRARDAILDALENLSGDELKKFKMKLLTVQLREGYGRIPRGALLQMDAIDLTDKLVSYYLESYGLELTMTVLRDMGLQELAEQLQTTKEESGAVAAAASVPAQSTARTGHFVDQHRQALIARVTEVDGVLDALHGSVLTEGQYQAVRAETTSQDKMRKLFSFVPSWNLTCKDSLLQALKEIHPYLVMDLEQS
Description: (§2) Inflammasome activation assays.

IAV = format: cell-based, mouse
[2] = system: H1N1 IAV, strain A/NWS/33; format: in vivo, mouse
NLRP3 inflammasome [3] = biological target: T2, NLRP3 inflammasome (Homo sapiens, UniProt Q9ULZ3); test: ASC speck and filament formation in HEK293T cells reconstituted with human NLRP3-mCitrine and human ASC-mPlum (ImageStream, confocal); format: cell-based; parameters: expressed in transfected cells; host or cells: HEK293T
Description: as §2
(§3) ImageStream imaging flow cytometry. […] Nuclei were stained with DAPI.
Confocal imaging. […] At 48 h post-transfection, cells were fixed with 10% formalin for 15 min at room temperature. DAPI (1:2000 dilution) was used for nuclear staining. All samples were then mounted and examined using the Leica TCS SP8 confocal microscope.

NLRP3 inflammasome [4] = biological target: T2, NLRP3 inflammasome; test: Inflammasome activation in LPS-primed THP-1 macrophages stably expressing ASC2, stimulated with MSU crystals; format: cell-based; parameters: endogenous in cells; host or cells: THP-1 macrophages (PMA-differentiated, LPS-primed); settings: LPS 3 h, MSU crystals 4 h
Description: (§4) Generation of THP-1 and IMACs stable cells. […] Single cell clones were generated for THP-1 cells stably expressing ASC2-LSSmOrange.
as §2

[5] = system: Pteropine orthoreovirus 3 (PRV3M); format: cell-based, mouse; settings: bat ASC2/rtTA vs WT BMDMs
human ASC = biological target: T3, human ASC (Homo sapiens, UniProt Q9ULZ3); test: Co-immunoprecipitation of ASC2-His with human ASC-Flag from HEK293T cells; format: binding; settings: 0.25 μg bat or hupa4 ASC2 vs 3 μg human ASC2 transfected, FIG. 26A
T3 construct: expressed in transfected cells; host or cells: HEK293T
Description: as §1

[6] = system: peritonitis induced by MSU crystals; test: Peritonitis induced by MSU crystals in bat ASC2/rtTA mice; format: in vivo, mouse; settings: bat ASC2/rtTA vs WT mice, oral Dox 7 days, 200 μg MSU crystals i.p., 4 h
AIM2 inflammasome [7] = biological target: T4, AIM2 inflammasome (Homo sapiens, UniProt Q9ULZ3); test: ASC speck formation in HEK293T cells reconstituted with human AIM2-mCitrine and human ASC-mPlum (ImageStream); format: cell-based; parameters: expressed in transfected cells; host or cells: HEK293T; settings: FIG. 3D
Description: as §2, §3

NLRP3 inflammasome [8] = biological target: T1, NLRP3 inflammasome; test: Inflammasome activation in LPS-primed BMDMs of WT or bat ASC2/rtTA mice stimulated with nigericin; settings: Dox-induced bat ASC2, LPS 3 h
AIM2 inflammasome [9] = biological target: T4, AIM2 inflammasome; test: Inflammasome activation in LPS-primed THP-1 macrophages stably expressing ASC2, transfected with poly(dA:dT); format: cell-based; parameters: endogenous in cells; host or cells: THP-1 macrophages (PMA-differentiated, LPS-primed, poly(dA:dT)-transfected); settings: LPS 3 h, poly(dA:dT) 4 h
Description: as §4, §2

NLRP3 inflammasome [10] = biological target: T2, NLRP3 inflammasome; test: Inflammasome activation in LPS-primed THP-1 macrophages stably expressing ASC2, stimulated with nigericin; format: cell-based; parameters: endogenous in cells; host or cells: THP-1 macrophages (PMA-differentiated, LPS-primed); settings: THP-1 macrophages, ASC2-LSSmOrange, LPS 3 h
Description: as §4, §2
ImageStream imaging flow cytometry.

T4 sequence (Q9ULZ3 whole entry): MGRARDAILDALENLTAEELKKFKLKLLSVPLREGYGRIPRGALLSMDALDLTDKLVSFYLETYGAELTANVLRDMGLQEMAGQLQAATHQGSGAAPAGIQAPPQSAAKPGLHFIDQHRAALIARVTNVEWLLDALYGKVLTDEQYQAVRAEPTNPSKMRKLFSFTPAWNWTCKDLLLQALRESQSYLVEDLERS
T2 sequence (Q9ULZ3 whole entry): as above
T3 sequence (Q9ULZ3 whole entry): as above

B1: bat ASC2: ASC2 (PYRIN-only protein) of the bat Pteropus alecto, SEQ ID NO:11; expressed from vectors or as Dox-inducible transgene (protein)
chain: MGKKRDAILEALENLTADELKKFKLKLGAAPLRQGFRNIPRGALGPLDAVDLTDKLVAFYCEDYGAELTAVVLRDIGMQEEAERLQGVA
- Interaction with bat ASC (co-IP) (bat ASC): interact with bat ASC more strongly than human ASC2
- Activation of NLRP3 inflammasome (LDH release, IL-1β) (NLRP3 inflammasome [1]): suppressed the activation
- In vitro IL-1β response to IAV infection (IAV): significantly lower
- Viral titres in supernatants (IAV): no obvious difference
- Level of IL-1β in lung tissue extracts ([2]; 3 dpi, bat ASC2/rtTA vs WT mice, FIG. 10B): significantly reduced
- Lung viral titres ([2]; 3 dpi, bat ASC2/rtTA vs WT mice, FIG. 10C): no significant different
- Mortality ([2]; bat ASC2/rtTA mice, IAV 0.5×10^5 pfu intranasal one day after Dox, 14 days post-infection, 100% of WT mice succumbed): 50%
- ASC2 filament formation / distribution (NLRP3 inflammasome [3]; HEK293T, ImageStream and confocal): formed fine and long filaments
- Co-localization with human ASC (NLRP3 inflammasome [3]; HEK293T, imaging, FIG. 3A): co-localization between bat ASC2 and human ASC
- ASC speck formation (human NLRP3 inflammasome activation) (NLRP3 inflammasome [3]; HEK293T, human NLRP3-mCitrine, human ASC-mPlum, 50 ng ASC2-LSSmOrange, 48 h post-transfection): suppressed the activation of human NLRP3
- Potency in inhibiting human NLRP3 inflammasome compared with human ASC2 (NLRP3 inflammasome [3]; expression normalized by gating equal signal intensity, FIG. 3C): significantly more potent
- Cell death (LDH release) (NLRP3 inflammasome [4]; FIG. 4D): inhibited
- IL-1β secretion (NLRP3 inflammasome [4]; FIG. 4E): inhibited
- IL-1β secretion triggered by PRV3M ([5]; LPS 3 h, PRV3M MOI=5, 24 h, Dox, FIG. 10G): substantially inhibited
- Viral load for PRV3M ([5]; MOI=5, 24 h, FIG. 10E): without affecting the viral load
- Interaction with human ASC (co-IP) (human ASC): interact strongly with human ASC
- Recruitment of neutrophils and inflammatory monocytes (peritoneal lavage) ([6]; FIG. 8B, 8C): significantly reduced
- IL-1β release in the peritoneal lavage ([6]; FIG. 8D): decreased
- ASC speck formation (human AIM2 inflammasome activation) (AIM2 inflammasome [7]; HEK293T, human AIM2-mCitrine, human ASC-mPlum, ASC2-LSSmOrange): suppressed the activation
- Potency in inhibiting human AIM2 inflammasome compared with human ASC2 (AIM2 inflammasome [7]; expression normalized by gating equal signal intensity): significantly more potent
- ASC speck formation (NLRP3 inflammasome [8]; nigericin 30 min, FIG. 6B, 6C): reduction of ASC speck formation
- Pyroptotic cell death (LDH release) (NLRP3 inflammasome [8]; nigericin 1 h, FIG. 5B): reduction
- IL-1β secretion (NLRP3 inflammasome [8]; nigericin 1 h, FIG. 5C): reduction
- Cell death (LDH release) (AIM2 inflammasome [9]; FIG. 3G): inhibited
- IL-1β secretion (AIM2 inflammasome [9]; FIG. 3H): inhibited
- Pyroptotic cell death (LDH release) (NLRP3 inflammasome [10]; nigericin 2 h, compared with human ASC2, FIG. 3E): significantly more downstream inhibition
- Secretion of IL-1β in the supernatants (NLRP3 inflammasome [10]; nigericin 2 h, compared with human ASC2, FIG. 3F): significantly more downstream inhibition
- Induction of ASC specks (NLRP3 inflammasome [10]; nigericin, FIG. 4B, 4C): inhibited the induction of ASC specks more potently than human ASC2
